Experimental data reported in the supplement of paper PMC10567573.
± gives the standard deviation.

Assay: protein stability index of a GFP-peptide fusion (GPS, HEK-293T) (PSI 1-6); higher = more stable
[1] = treatment: DMSO, c terminus: a fixed tail appended
[2] = treatment: MLN4924 1 uM, 8 h, c terminus: a fixed tail appended
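Further: 24-mer peptide tiles fused after GFP, lentivirally expressed, FACS-sorted into six equal bins by GFP/DsRed ratio, decoded by Illumina sequencing, PSI is the read-weighted mean bin number.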

Sequence	protein stability index [1]	protein stability index [2]	protein stability index (treatment: DMSO, c terminus: native)	protein stability index (treatment: MLN4924 1 uM, 8 h, c terminus: native)
IHTGERPYKCPECGKSFSRSSHLV [ZNF263]	2.66 ± 0.45	3.18 ± 0.55	–	–
IIISEPMGYMLFNERMLESYLHAK [CARM1]	2.66 ± 0.41	2.51 ± 0.35	–	–
IIKMATARQETKEMARKVIEHCSN [ZER1]	2.94 ± 0.35	3.08 ± 0.13	–	–
IINAKSNDGWTPLHVAAHYGRDSF [ASB7]	2.46 ± 0.24	2.41 ± 0.42	–	–
IMDANQTYLVSERLEREERNQTQV [FAF2]	4.16 ± 0.2	4.32 ± 0.1	–	–
INCQLSDPSSTKPGTLLKTSPSPE [TRIM14]	4.79 ± 0.3	4.88 ± 0.31	–	–
INVPIRLECVKFASHCLMNHPDLA [PDS5B]	2.28 ± 0.46	2.27 ± 0.17	–	–
IPEKDMDERRRLLEQKTQESQKKK [ZNF207]	5.51 ± 0.27	5.59 ± 0.11	–	–
IPIFNETGRFSFTLPYPVKIKVRF [HACD3]	2.92 ± 1.2	2.77 ± 0.44	–	–
ISNIFSNYFSAMYSSEDSTLASVP [ELF3]	2.2 ± 0.25	2.1 ± 0.18	–	–
ISPSTLKNSLFPSPISSISPGLHS [KCNK9]	2.71 ± 0.56	2.76 ± 0.56	–	–
ITYQPAASTKMCEQALGKGCGADS [PLK2]	4.06 ± 0.36	4.44 ± 0.24	–	–
IVALYIASGLTGFIGLEVVAQLFN [ATL3]	3.24 ± 0.094	3.31 ± 0.33	–	–
IVGIVEKGNRTARIIDKPRVIEVL [SEPHS2]	2.56 ± 0.29	2.27 ± 0.49	–	–
IVGNQVQGAPASSFVYVNPEDGRI [PCDHGC5]	3.46 ± 0.073	3.48 ± 0.21	–	–
IVILENIAVAWIYGTKKFMQELTE [SLC6A17]	3.05 ± 1	2.92 ± 0.2	–	–
IVISYIHVAAAVLRIRSVEGRKKA [OR3A1]	2.37 ± 0.6	2.05 ± 0.21	–	–
KAEPRLPDRVYIHPDSPATGAHWM [TBX6]	3.09 ± 0.12	3.23 ± 0.35	–	–
KAFRSDSSFNFFVFFFIFFVQDVL [SCAMP3]	3.36 ± 0.43	3.25 ± 0.17	–	–
KAGLENSLAETECRYATQLQQIQG [KRT15]	3.92 ± 0.049	4 ± 0.3	–	–
KAHKYSELIILYEKKGLHEKALQV [VPS39]	2.19 ± 0.43	2.18 ± 0.46	–	–
KASWSSLSMDEKVELYRIKFKESF [COX4I1]	2.55 ± 0.56	2.85 ± 0.44	–	–

Sequence	protein stability index [1]	protein stability index [2]	protein stability index (treatment: DMSO, c terminus: native)	protein stability index (treatment: MLN4924 1 uM, 8 h, c terminus: native)
KATASEAVDCKWYIRAPPRSKIYL [NETO1]	2.23 ± 0.54	2.25 ± 0.32	–	–
KATMQNLNDRLASYLDKVRALEEA [KRT17]	3.14 ± 0.19	3.43 ± 0.3	–	–
KAVCGKCSSKRSSIPLMGFEFEVR [WDFY2]	2.32 ± 0.12	2.71 ± 0.39	–	–
KAVFGKHGPISEVLLIKDRTSKSR [RBMY1A1]	3.04 ± 0.28	3.34 ± 0.22	–	–
KDHECSECGKTFIYNSHLVVHQRV [ZNF232]	2.56 ± 0.32	2.88 ± 0.41	–	–
KDKRRIVSSSQDGKVIVWDSFTTN [GNB5]	3.63 ± 0.049	3.8 ± 0.19	–	–
KDPKAGDSKSGGSGSESDHTTRSS [DVL3]	5.3 ± 0.38	5.53 ± 0.23	–	–
KDVAIDMMDSRTSQQLQLIDEQDS [STX5]	5.4 ± 0.21	5.33 ± 0.4	–	–
KEGARNIRTSERVTLIVDNTRFVV [BTBD10]	1.95 ± 0.32	2.29 ± 0.34	–	–
KEPVIIECGHNFCKACITRWWEDL [TRIM39]	2.53 ± 0.5	2.62 ± 0.36	–	–
KGERRREPGGYDSSSTLMSSELET [DVL3]	5.19 ± 0.19	5.15 ± 0.13	–	–
KGGAVAADGRIEPGDMLLQVNEIN [DVL3]	4.49 ± 0.19	4.59 ± 0.14	–	–
KGKQPTSAENSVAKKEDKVPVKKQ [NANOGP8]	5.37 ± 0.32	5.44 ± 0.14	–	–
KHFCPRTPVILVGCQLDLRYADLE [RHOBTB1]	2.35 ± 0.49	2.19 ± 0.33	–	–
KHTVKEHECKLTQEILELIDREVD [IQUB]	4.06 ± 0.23	4.24 ± 0.22	–	–
KILVGNRLHLAFKRQVPREQAQAY [RAB40A]	2.48 ± 0.11	2.56 ± 0.19	–	–
KIREKEEWIKLDYHRRHNPKTNED [IQUB]	4.23 ± 0.28	4.74 ± 0.13	–	–
KIRKPRTIYCSLQLQALNRRFQQT [DLX1]	2.45 ± 0.78	1.95 ± 0.51	–	–
KISVPRDVMLEELSLLTNRGSKMF [MYOZ1]	2.8 ± 0.28	2.76 ± 0.35	–	–
KKFYEAFSKNLKLGIHEDSTNRRR [HSP90AB1]	3.39 ± 0.33	3.59 ± 0.51	–	–
KKIQVNSKPSIQPKPLLLPAAPKT [ATF6]	4.18 ± 0.17	4.221 ± 0.027	–	–
KLEYEEIALDLTPVIEELTNAGFL [FAN1]	2.14 ± 0.23	2.38 ± 0.24	–	–

Sequence	protein stability index [1]	protein stability index [2]	protein stability index (treatment: DMSO, c terminus: native)	protein stability index (treatment: MLN4924 1 uM, 8 h, c terminus: native)
KLGWGHFSTVWLCWDMQGKRFVAM [SRPK2]	2.9 ± 0.87	2.64 ± 1.2	–	–
KLKNDTENHQPVSLSDLEIQASAG [ZNF75A]	5.21 ± 0.32	5.15 ± 0.14	–	–
KLPLQIDCLAAWEEWLLVGTKQGH [VPS39]	2.43 ± 0.41	2.47 ± 0.14	–	–
KLQGLENWGQDPGVSANASKAWHQ [PBXIP1]	3.27 ± 0.27	3.37 ± 0.28	–	–
KLVADFQRYILYWRKRFTEQPITD [ZNF277]	1.99 ± 0.24	2.19 ± 0.44	–	–
KMKTRELHRESSNFDSIYICPSTF [HDAC6]	2.26 ± 0.36	2.71 ± 0.39	–	–
KPKMNYEKLSRGLRYYYDKNIIHK [ETS2]	2.48 ± 0.19	2.52 ± 0.38	–	–
KRGSIPTSLTALSLASASPPLSGR [PPFIA4]	3.99 ± 0.2	4.17 ± 0.28	–	–
KSEEGHPFKAYLDVDITLSSEAFH [RTN3]	2.87 ± 0.45	2.67 ± 0.41	–	–
KSELSDGIAILVGSNDRVQGVISQ [TRIM55]	3.46 ± 0.31	3.52 ± 0.34	–	–
KSLSELVDDKFGTGTKKVTRILDG [PSD2]	4.44 ± 0.18	4.53 ± 0.23	–	–
KTIKSFFPHSGKDCLLCFPETLPE [C8orf76]	2.92 ± 0.26	3.03 ± 0.32	–	–
KTPVLLTDYPVDLDEIAYFTWAS [MYORG]	–	–	2.25 ± 0.15	2.18 ± 0.3
KVPVITSSKEEQKLIATSNKPAVK [KCTD10]	4.92 ± 0.27	5.29 ± 0.23	–	–
KWTRVASMSTRRLGVAVAVLGGFL [KLHL20]	2.18 ± 0.11	2.08 ± 0.13	–	–
LAELQEQLKAVHEQLAALSQAPVN [BRD3]	4.2 ± 0.3	4.24 ± 0.43	–	–
LAEYCIKTKVPSNDNSSDLLYDDL [UBE2R2]	4.13 ± 0.17	4.19 ± 0.32	–	–
LAGMANHGSPQLGEGMFQHQTSVA [TBX5]	3.83 ± 0.2	3.83 ± 0.13	–	–
LAIQEMVSLTSPSAPPTSRTSSGN [PPFIA4]	3.88 ± 0.19	4.05 ± 0.17	–	–
LALIDYLTQKRSQLVKKLNDSDHQ [VPS39]	2.51 ± 0.14	2.77 ± 0.69	–	–
LAQEAEAWLNYPCFKNWDGSPVSS [OAS1]	3.04 ± 0.28	3.11 ± 0.35	–	–
